IntAct's records for PubMed 17185412

How the values were obtained:
syt1_mouse Syt1 = syt1_mouse Syt1 (UniProt P46096)
syt2_mouse Syt2 = syt2_mouse Syt2 (UniProt P46097)

Substance	effect of a mutation on the interaction (syt1_mouse Syt1)	effect of a mutation on the interaction (syt2_mouse Syt2)
Botulinum neurotoxin type B (Clostridium botulinum) (from UniProt P10844) W1262L	decreasing interaction strength	
Botulinum neurotoxin type B (Clostridium botulinum) (from UniProt P10844) V1118D	decreasing interaction strength	decreasing interaction strength
Botulinum neurotoxin type B (Clostridium botulinum) (from UniProt P10844) K1192M	decreasing interaction strength	
Botulinum neurotoxin type B (Clostridium botulinum) (from UniProt P10844) Y1183R	decreasing interaction strength	decreasing interaction strength
Botulinum neurotoxin type B (Clostridium botulinum) (from UniProt P10844) K1192E	decreasing interaction strength	
